Reference: the supplement of paper PMC9170038

Tested on: MS2 coat protein
Assay: apparent KD of MS2 coat protein; designed switch direction (-1 OFF switch, 1 ON switch): 1; higher = weaker reporter binding
Summary of the method: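 On Illumina chips, designed RNA switches with common flanks were made by stalled E. coli RNA polymerase. Titrations with SNAP-549-labelled MS2 coat protein, doubling from 0.7 or 1.5 nM to 3 µM, were done with no input, with 200 uM small-molecule ligand, or with an oligonucleotide input. Apparent KD is the median per design over clusters, from curve fits of normalised cluster fluorescence.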

[1] = input ligand: microRNA oligo, concentration not stated
[2] = Eterna round: R95, input ligand: FMN 200 uM
[3] = Eterna round: R95, input ligand: microRNA oligo, concentration not stated
[4] = Eterna round: R95, input ligand: none

Row | Sequence | apparent KD of MS2 coat protein (input ligand: FMN 200 uM) [nM] | apparent KD of MS2 coat protein [1] [nM] | apparent KD of MS2 coat protein (input ligand: none) [nM] | apparent KD of MS2 coat protein [2] [nM] | apparent KD of MS2 coat protein [3] [nM] | apparent KD of MS2 coat protein [4] [nM]
1 | UGUUUGUUGUGAGGAUAUACGUACACCUUACAUGAGGAUCACCCAUGUUGUUUCUUUGAUUGUUGGUAGAAGGCACUUGGUUAU [JR_SSNG2_Sub048] (Eterna round: R96, puzzle: Same State NG 2) | 324 | 123 | 208 |  |  | 
2 | GCUAGGAAUAAAGCCAACAUGAGGAUCACCCAUGUAUGUUGGUAGGAUAUCGUUUGCUUUGCAAACGAGAAGGGCUAACCUAGC [JL SSNG3 1.24] (Eterna round: R96, puzzle: Same State NG 3) | 74.6 | 64.5 | 67.5 |  |  | 
3 | UAAGGACAUGAGGAUCACCCAUGUGCUUCAUAUGGAGAAUCUCAGGAUAUCCUGAGGAUCACCCAGGAGAAGGGAGAUCCGAGG (Eterna round: R96, puzzle: Same State NG 3) | 288 | 191 | 225 |  |  | 
4 | AUAAGGCAAGCUUUUUUCUCGUAGUAUAAACAUGAGGAUCACCCAUGUGCCUACCCUGGAUCUUUGGAUCGCAGAAA [Ravebiat] (puzzle: Sensor for hsa-mir-208a) |  |  |  | 22.1 | 15.7 | 28.3
5 | AAUUAAGAUCAAGGAUAUCACGUCGAUUAGACGUGAGAAGGUGAUCCAUACAUGAGGAUCACCCAUGUAUAACAUGAAUUAAUU [SSNG1/8-B2] (Eterna round: R96, puzzle: Same State NG 1) | 395 | 626 | 1580 |  |  | 
6 | UGUUGUAUUACAGGAUAUCUAUUGAUUUUAUUUAGAGAAGGGUAUUCACAUGAGGAUCACCCAUGUAUAUACGAGGAAGUUGUG [JMF's solution 71] (Eterna round: R96, puzzle: Same State NG 1) |  | 41.5 |  |  |  | 
7 | GUUAGGAAUCUAGCAAACAUGAGGAUCACCCAUGUAAGUGGGAAGGAUAUGGUACAGAAACUGUACCAGAAGGUCUUAUUAAUU [Omei SS(NG) 3 AV1] (Eterna round: R96, puzzle: Same State NG 3) | 128 | 246 | 306 |  |  | 
8 | GGAGCCGGCACCGAGGAUAUUCAUAUUAAAACAUGAGGAUCACCCAUGUAGGCCAGAAGGCUUUGGGAGAAGGCGGAUCGGCUCG [Xeonanis - 3] (puzzle: Same State 2) |  |  |  | 25.3 | 310 | 546
9 | GAGUGGAGGAGAGGAUAUACAAUGAUAAUCACAGUAGAAGGUUCUAACAUGAGGAUCACCCAUGUAGGACUAUUCCUGAGAGAA [Parity 49 - Jieux - Same State NG 1] (Eterna round: R96, puzzle: Same State NG 1) | 10.2 | 9.32 | 15.7 |  |  | 
10 | CGUCCGGCCUGUGCUGGCCGGUGGCUUGUACAUGAGGAUCACCCAUGUUCUUGUGCUGGCUGUUUGCUCGUCUUGUG [salish99_mir208a_r3_021] (puzzle: Sensor for hsa-mir-208a) |  |  |  | 50.2 | 22.6 | 61.2
11 | GGAGAACAUGAGGAUCACCCAUGUGGAUGGGCGCUAGGAUAUGCGAGAGGGUGAAGAGAAGCAGAAGGAGUGGAUA [JR_SS1_Sub036] (Eterna round: R96, puzzle: Same State 1) | 130 | 96.6 | 147 |  |  | 
12 | GUUACAUGAGGAUCACCCAUGUAUGUGUGGGAGUAAGUGUCUUAGGAUAUCUAUUAUUUUAAUUAAGAGAAGGAAGAUUGUUGU [JMF's solution 20] (Eterna round: R96, puzzle: Same State NG 3) | 98.6 | 113 | 122 |  |  | 
13 | GGUCCAUCAUGAGGAUAUGGCACCUUAUUGGUGCCAGAAGGCAUGUCUAUUAGACAUGAGGAUCACCCAUGUAUAAAUUGGACC [Eli NG1ss - 91] (Eterna round: R96, puzzle: Same State NG 1) | 108 | 192 | 1130 |  |  | 
14 | GUAGCAUACCGAGGAUAUUCUACAUGAGGAUCACCCAUGUUUAAUAGGCCACAUUAGUGGCCUUGGGAGAAGGCGGAAUGCUAC [Xeonanis - 20 Mod47] (Eterna round: R96, puzzle: Same State NG 2) | 13.6 | 12.7 | 19.8 |  |  | 
15 | GGUAUCAGCACAGGAUAUGCUAUCCUUUGGGUAGCAGAAGGGUGGACAUGAGGAUCACCCAUGUGGGUGCCAGGGCGUGAGCCC [JL SSNG1 1.86] (Eterna round: R96, puzzle: Same State NG 1) | 426 | 75.9 | 323 |  |  | 
16 | UAAAAUAACACAGGAUAUGCAGACAACUCGUCGGCAGAAGGGUGAGACAUGAGGAUCACCCAUGUAAAAUAAGGGCGCCGCCCG [Diatera] (Eterna round: R96, puzzle: Same State NG 1) | 995 | 219 | 777 |  |  | 

Row | Sequence | apparent KD of MS2 coat protein (input ligand: FMN 200 uM) [nM] | apparent KD of MS2 coat protein [1] [nM] | apparent KD of MS2 coat protein (input ligand: none) [nM] | apparent KD of MS2 coat protein [2] [nM] | apparent KD of MS2 coat protein [3] [nM] | apparent KD of MS2 coat protein [4] [nM]
17 | UUAUUAUUUACAUGAGGAUCACCCAUGUUUUUAUGUCAGAGACAGGAUAUAGAAGUCUCGUUUUACUAGAAGGGUCUUUUUAUU [JR_SSNG3_Sub016] (Eterna round: R96, puzzle: Same State NG 3) | 22 | 17.1 | 22 |  |  | 
18 | UAGAGAGGAAGCGAGGAUAUCGUGUGAGGUACAUGAGGAUCACCCAUGUUUGAUGUUGAGAGAGGCGAGAAGGCGCAGGAGAUAA [JR_SS2_Sub085] (puzzle: Same State 2) |  |  |  | 31.9 | 32.4 | 34.1
19 | AUAAAACAUGAGGAUCACCCAUGUCAACAAAGUCGAGGAUAUGGGCAAAUAAAAUAAGAACCAGAAGGCGAAUAUU [salish99_ss1_r3_037] (puzzle: Same State 1) |  |  |  | 31 | 382 | 750
20 | UACUUCAUGUAAGGAUAUGCAGCCGUUUCGGCUGCAGAAGGUACUAUAAUACAUGAGGAUCACCCAUGUCUCUCGCAUUGCGAG [JL SSNG1 1.50] (Eterna round: R96, puzzle: Same State NG 1) | 53.6 | 86.2 | 158 |  |  | 
21 | UCUUGGUUUUUGCUCGUUUUUUGUGUUGAACAUGAGGAUCACCCAUGUAUUGUACGGUCCAAUUUAAUAAUGGUCCG [JMF 23] (puzzle: Sensor for hsa-mir-208a) |  |  |  | 26.3 | 14.3 | 26.9
22 | GUACAGAUUAUAGGAUAUCACGUCGAAUAGACGUGAGAAGGAUAAUCCCACAUGAAUAUUAAUACAUGAGGAUCACCCAUGUAC [SSNG1/18-B1] (Eterna round: R96, puzzle: Same State NG 1) | 16.8 | 19.8 | 20.4 |  |  | 
23 | GUAGCAUACCGAGGAUAUUCAUUACAUGAGGAUCACCCAUGUUUUAUAGGUCGAUUACGACCUUGGGAGAAGGCGGAAUGCUAC [Xeonanis - 20 Mod30] (Eterna round: R96, puzzle: Same State NG 2) | 10.5 | 9.36 | 15.6 |  |  | 
24 | GGUCGGACCUACAUGAGGAUCACCCAUGUUCCGGAAACGGCAUAGGAUAUCUGUCCGAAAAGGUCAGAGAAGGGUGAACCGACC [Fiskers NG3ss - 74] (Eterna round: R96, puzzle: Same State NG 3) | 145 | 160 | 162 |  |  | 
25 | GUUACAUGAGGAUCACCCAUGUAUGUGUGGGAGUAAGUGUCUUAGGAUAUCUGUGAUUUAAUUUAAGAGAAGGAAGAUUGUUGU [JMF's solution 32] (Eterna round: R96, puzzle: Same State NG 3) | 126 | 71.6 | 96.1 |  |  | 
26 | UUAGCGACGGAAGGAUAUUGGACGCUAACAUGAGGAUCACCCAUGUAGAGGUCCUACCAACAGCGCAAGAAGGUCCGAUCAGCA [Eternabot solution 13] (Eterna round: R96, puzzle: Same State NG 2) | 22.7 | 8.94 | 13.3 |  |  | 
27 | CCAACAUACAAUUUAAGAUCACAUGAGGAUCACCCAUGUAUGCAGGAUAUCAGCUCGAAUAGAGCUGAGAAGGGCAAUUUAAUU [SSNG3/1-A1] (Eterna round: R96, puzzle: Same State NG 3) | 94.7 | 127 | 262 |  |  | 
28 | UUCUCAUUUACAUGAGGAUCACCCAUGUUUUUUUGUCGGAAAUAGGAUAUAGGUCUCUCGUUUUACUAGAAGGAUUUCCUUAUU [JR_SSNG3_Sub089] (Eterna round: R96, puzzle: Same State NG 3) | 70.4 | 70.7 | 58.9 |  |  | 
29 | ACAUGAGGAUCACCCAUGUAACACCUGAAAAUAAAACGAACACAGGAUAUCCCGACAUGACGUUGGGAGAAGGGUGAUCGAAGA [Leenrien] (Eterna round: R96, puzzle: Same State NG 3) | 269 | 202 | 29.6 |  |  | 
30 | UAAGGACAUGAGGAUCACCCAUGUGCUUCAUAUGGAGAAUCUCAGGAUAUGCUGAGGAUCACCCAGCAGAAGGGAGAUCCGAGG (Eterna round: R96, puzzle: Same State NG 3) | 71.9 | 93 | 120 |  |  | 
31 | AUUAAACAUGAGGAUCACCCAUGUCAACAAAGUCGAGGAUAUGGGCAUAUUAUCUUAUAACCAGAAGGCGAAUAAU [salish99_ss1_r3_086] (puzzle: Same State 1) |  |  |  |  | 155 | 
